We go through 21 sequences from a protein production outcome set (Wang et al. 2014).

This series can be described thus: label from the status in PepcDB records.
Regarding “MKYTYKQIWLINFPVMMSILMEQLINITDAVFLGHVGEIELGASALAGIYYLAIYMLGFGFSIGLQVMIARRNGEQHYKETGRTFFQGLYFLMVMAIMLCLLIHLVSPFILQQLITSDEIYQAVIRYLNWRSFGLLFSFPFLAFRAFLVGVTNTKLLSGAALTAVCINIPFNYLLIFKLDMGISGAAMASSIAEFGAFLILLLYMCKTVDKKKYGLSAVYDGRLLMKLLQLSVWSMLHAFISVAPWFLFFVAIEHLGKTELAISNITRSVSTLFFVIVNSFASTTGSLVSNLIGGGQGKELFPVCRKVLRLGYVVGLPLILTALWGNQWIIGFYTNNDYLVKLAFWPFIVMLLNYVFALPGYVYINAVTGTGKTRLAFVFQLVTILIYLIYLYLLSECFHASLTVYMTAEYLFVILLGIQSILYLKRKSKQNMYFCTFND”, the protein production entry is “failed”.

In the case of “MLAGGAARRLGGADKPGLRVGGRPLLDRVLAACAGARRTVVVADPRPTARPVTWAREDPPGGGPLAALAAGLRHTTAEYVLVASADLPFLAGPTVGRLLSALAAGDADGVLLTDADGRDQPLVAAYRAPALRRELAALARNRAGRGERADGAQLTGLPLRRLTGALRLTRVPDAVAAFDCDTWDDLATARARIREHGHVLDEWISAAKDELGIDLDVDTGILLDLARDAAHGVARPAAPLTTFLVGYAAGRAGGGPEAVAETARKAAALAQRWAEEAADTGSAPARGKPDVAPDATPDTRPDA”, the protein production entry is listed as “failed”. The result for “MLAGGKMGDMKITRHIHACVEISQGNDRIIIDPGTFGAPDLCGATILVTHNHADHVDPELLKPGMTIYAPRSVAHSIPVECHIVEHGRNFTVGSLSVEVLGSEHAMLTHSMPIAENVGYLINGRVLHPGDTFQPIKDVELALVPVNGPWVKMLDVEGYLKKFPPKRFIGIHDGIVNDRGLAINKKFLTHLGETYGSEYSPLEEGESLEILEHHHHHH” reads “failed”. The result for “MLAGGSLPSLAPDLVRDLIATAADISLLVSQEGVVREVMANPHHPSFGQLSEWEGRPLEEVLTAESVAKFRLRSEGLEPGRGSVAVELNHIDPRSFEFPIRYILHRLPADRSILMLGRDLRPIAEVQQQLVAAQLAMERDYETQREMETRYRVVLDVSRDPMVLVSMSTGRIVDLNSAAGLLLGGVRQDLLGAAIAQEFEGRRRGEFMETMTNLAATESAAPVEVLARRSQKRLLVVPRVFRAAGERLLLCQIDPADATQPVGDELSENLARLYHEGVDGIVFSDADGTIRGANEAFLNMTDSSSLAAIRGRSIADFLARGSVDLRVLIDSVRRTGQLRLYATRLTTDFAGQIAAEISATWLDDRERPLLVLVVRDTSRADTMRRPVPATGVIDEPARNVMELVGNSTLKDIVAETTDVVEKMCIETALELTRNNRVAAAEMLSLSRQSLYVKLRKFGLLNKDE” reads “failed”.

“MLALVKRNCLLYFRNRSGVVFSLLGALISFILYLVFLKDNIESSWSQIDNTNQLLDTWLIGGTLAITGITTTLSNLSQWTKDKESHVRQDLLITDLGYWPLSLSYIISAALVGFIMQAIMLTIMGTYFYFTDKVTLSWTVLLQLIFIMILNTLISTIINALIVNRIQSVDNLGKLATIFGAASGFLVGTYVPIGALPDTAQTIMKLTPGAYIASLFRQTLMSDTLKDNFSQANAREHFEKMMGIRLNWQNLLTNTDTYYIVIGILVAGVLIFCLQNALRKYQALI”: the protein production entry was “failed”.

As for “MLAQKNTNKKPFGNTLTNILCKDKKKKNLDPQISSLVSLVDNMDITQEKKDKIKNLSLKYINSRDVKEKNESINELQKYSNNEECKEQMDSYLMHLRMQNDIKCLKRKNLWNNIGINSITLSLIIIMIMIACMFAIYSTAQYIYVPASFLLIFIIYIVARYFPDMKIGFKKLKTKLNTFFQNKKQITK”, the protein production entry is “failed”. On to “MLARAALILLFFGLLGDSGAGQGRDGNALFDRGRYVAAAETYRAGLDALDDTTGSVYTGLQNNLGLALHRQERLGAARAALRKARRAATTEAERVRVLFNAATVAAEMNDRTKALDRYRTVLLLDPTHEAARFNYEYLKRQAGGGAGSDPPTLEPSPFAQKLKERADALVARTQYTTAAALLRDGMQKDSTVRAYRDFVTRIEEIAQIARSDP”, for which the protein production entry is recorded as “failed”. The entry for “MLARVLILLMFSLCAWPARAHALTIYTEEWPPITFQRNGIADGMAVEVVREIQGRIHDNSPIEVVPWARGYKDLLTTPGVMLFTVGRSEAREKQMTLLGPIAVSQTVLLARKGEAAKLLALGAGIYQRPVGAYRGSIFADAASAAGFVEVDLAPTPQLTAQKMLMGRYDMWVEGGFVVASVLKDIHQPANAVEVVRVLESLELYLAFSRGTSAEEVKRWQDGFAAIKKDGTFKRIYNKWLPRDAPPMEMKLLGVPPGTAR” is “failed”. The entry for “MLDATTRSGGTATATPRATATDLTVATAAAAAGVTAPGAAVAVPTGFTARCTRVLLSPWSRLSLLVALLAAAASSVLLFEPQKLLAHGWPPQLGGAAAAVVFAVAYGLCTVAFVPRPLLNLAAGALFGSQWGTGTALAGTVLGAGVAFGLGRMLGQDALRPLLRGRWLKAVDGQLSRHAFRSMMAARLFPGVPFWAANYCAAVSRMRWVPFLVATALGSIPNTAAYAVAGARASRPTSPAFLIAMGFIAVPALVGAVVAWRKRHHLRGN” is “failed”; for “MLDFLAANPLIALVVILAVGLAIGQIRVFGLSLGAAAVLFVALVVSTANTDIVIPMIVYQLGLAMFVYVIGLSAGPAFFSEFAKKGWKLTIFMLLLLATLIGLAWVLIKSLGLDAAIGTGMFTGALTSTPGMAAVVELIEGIDPSLASEPVIGYSLAYPGAVLGSIVVAAVGAKLLKVNHREDARKEGMITAPLVWKGVQLKPGITGRVGDLPRLAGESIIATRIVDDPHTHRLADPDLPITEGMELLINGTEEAVDRAIKALGEERETKIEDTELIYTRLTVSSPEVAGRTVAELDTVAHGFMIARIRQGDSEVVPKPDTVINYSDRIRVVVAPGRVAEVRRFLGDSEKSLADVNLLPLAIGLSLGLLLGAIPIPLPGGTTMSLGFGGGPIIAGLILGALKHTGPLTWQMPFHANRTISTLGLALFLAGVGTSAGAGFRAALTDSSSLIYMAGGLVITLASALLCAVIGMWVLRLRWDEAMGVAAGTTTNPAIISYLNGQTGTDLANRGYATVYPTAMIGKILGAQILFLLL” it is “failed”.

In the case of “MLDFYALEDLLTPEEKEVQKAARRFLEKEALPHIRDWWEEGVFPTHLIPRFAELGFLGPTLPPEYGGAGVSSAAYGLICYELERVDSGLRSFVSVQSSLVMYPIYAYGSEEQKREFLPKLARGEMVGCFGLTEPDGGSDPYGNMKTRARREGDTWVLNGTKMWITNGNLAHLAVIWAKDEGGEVLGFLVPTDTPGFQAREVKRKMSLRASVTSELVLEEVRVPESLRLPKALGLKAPLSCLTQARFGIAWGAMGALEAVYEEAVAFAKSRSTFGEPLAKKQLVQAKLAEMLAWHTEGLLLAWRLARLKDEGKLTPAQVSLAKRQNVWKALQAARMARDILGGSGITLEYHAIRHMLNLETVYTYEGTHDVHTLVLGREITGLNAF”, the protein production result is reported as “not failed”. Take “MLDGQSCPLCPSRSSLPAGTSFHQSPMDIVTRTFEAPRTYRPSASVLGRAVRAWTNDRLRGEALYLVAMTGLTILLLMAHYLGWALLTSALAASQGWEPLFWQTQVGSVLVLAGLGLVGFRPAVRVTCRPDAVTLRQGDQTRTLSPPDIQDVRLISAQRYHRHYRRYAATQVFASAVSEQVLCVRTGDGPVIVALPGPEARAALLEHLEALTASASEAAARP”: the protein production result is “failed”. The result for “MLDNHDLIVSSVEKNSPAWDAGLTTEDVIVAIDGLRLLDNELDNRLKDFKPKQTITVTYFRRDKLITSRLKLAAIPKNKLKIIPIAKASVLEHHHHHH” reads “not failed”.

As to “MLDVAPPVITPRGTKIEPSAGAPFEAVRVARDVLHTSRTAALATLDPVSGYPYTTATNIGIEPDGTPFFFAAGLTLHARNMETDARISVTLAPFGKGDALTLPRLTLVGRADRIGPDEVPLAIARYIARYPKAKLYLSLPDTRLYRLRTEGVQINGGPARNASNITPADLRTDLSGAEELMAAAESEATRLNAIKGEASRLAVLAGAKTGRWKITSIDPDGIDLASASDLARLWFAERVETLKQFEKALAQLLK”, the protein production entry is “not failed”. The result for “MLEKVEEWIKARGLTWRLLIMQKPTRTVAEAAALLGVSESEIVKTLIVLDNAGGVYAVVIPGDKRLNINSMKELAGKPVRLARANEVVELTGYPVGGVPPVALPPNIVLVVDRILLSRKKVYGGGGRENALLEFSPRELVEATGAVVADVSE” reads “not failed”; that for “MLELCSIASGSSGNCICVGTDDCHVLIDAGISGKKIENGLNEFDMTATDMHGILVTHEHIDHIAGLGVMARRYHMPIYATKATIGAIKCTKSVGNIDDELFHPIEAGVDFTIGDIEFEPLHISHDAADPVAYRFKNENHAMAVVTDLGTYDDALVSKLQNLDGLLLEANHDINMLQTGAYPYPLKRRIMGDSGHLSNERSGQLLCELLHDKFGSVILGHLSKENNYEKLAYEAVRLEVTMGDNPYKASDFPMYVAKRDRASDRIAVE”, “failed”. The entry for “MLELRPARAADVPAIAAMHAASWRASYRGILPDDYLDRYAADERLSLWRRRFETASPPWVRLACWDGEPVGFVCLLPEEAPELGVYLDNLHVLPGQQGRGIGRALMAAAAAEAERIAPGRPLYLWVYERNADACAAYDKMGGVVMARREVDTAAGTRAIALRYSWP” is “failed”; for “MLENSITYEKPLYIIKMNQRKKIVQIALPAMAENLLQMLMGVVDNYLVAQIGLVAVSGVSVANNIITIYQAIFIALGAAVSSLVAKSLGEDNQARVRFYQSESVAITLMLSVVLGFISFVFGSNMLHLLGTTDSVTQAGGIYLAIVGGLVVSLGLQTTLGAILRAQGKARLPMYVSFLTNIVNVILATTAIYIGHWGIVGVAAATVLSRFLGTFVLACQLPIKAILRSMRIKIDKAFLAIALPSAGERLMMRAGDVVIIAIIVKFGTAAVAGNAIGETLTQFNYMPGMGVATATVILVAHNLGQGKKKVIKEVVRESYIISTVFMLLVGACIFFGGRQLTYLFTENKAALQASLVVLFYSFIGGPATSGTLVFTAVWQGLGKAKLTFYATTVGMWLIRIVLGYYLGVSLNLGLAGVWLATLADNVFRWLFLYCLYRKYMQGFNNNLSSS” it is “failed”; for “MLERLKRIHYMFWISLIFMIFPILSVVTGWLSAWHLLIDILFVVAYLGVLTTKSQRLSWLYWGLMLTYVVGNTAFVAVNYIWFFFFLSNLLSYHFSVRSLKSLHVWTFLLAQVLVVGQLLIFQRIEVEFLFYLLVILTFVDLMTFGLVRIRIVEDLKEAQVKQNAQINLLLAENERSRIGQDLHDSLGHTFAMLSVKTDLALQLFQMEAYPQVEKELKEIHQISKDSMNEVRTIVENLKSRTLTSELETVKKMLEIAGIEVQVENHLDKSSLTQELESTASMILLELVTNIIKHAKASKVYLKLERTEKELILTVRDDGCGFASISGDELHTVRNRVFPFSGEVSVISQKHPTEVQVRLLYKERK” it is “failed”. The result for “MLETAALAAGMSWASGIRLYLAVLTAGVLARLGWLDLPPGLHVLESWWVIGIAGAMAAAEFVADKVPGFDTVWDGIQTFIRIPAGAILAAAAFGQLDPQWMVAAGLIGGTLAGTAHATKAGTRALINVSPEPFSNWVASFTEDITTAGGLLLAFFLPVVFLILLVLFLITAAWLLPKLWRGVRRLHAGLRGNADNQRP” reads “failed”; that for “MLFEGLPCLAVWCKNRLSAVLPVGGLNVSENLLEIETHPFDPVLPPKAAVMMMGTFPPKEDKRAMQFHYPNFQNDMWRVYGLVFFNDAAHFQRLSEKAFDAEKIKAFLHERGIASCPTVLKAVRQHGNASDKFLKVVETVDLAAVLAKIPECRHICTTGGKATEILLDIQGGGIKMPKTGETVPFPFAGRDLTLTRLPSTSRAYPLSLAKKAAAYRAFFEMAGLCEKQLLEHHHHHH”, “failed”.
